Experimental findings from paper PMC12866951 (Cell, 2026) are described below.

In experiment [1] the target is T1, S.c. Rad27 (Fen1) flap endonuclease with a 6xHis tag at the C-terminus (S. cerevisiae, UniProt P26793 1-382).
T1 sequence (looked up): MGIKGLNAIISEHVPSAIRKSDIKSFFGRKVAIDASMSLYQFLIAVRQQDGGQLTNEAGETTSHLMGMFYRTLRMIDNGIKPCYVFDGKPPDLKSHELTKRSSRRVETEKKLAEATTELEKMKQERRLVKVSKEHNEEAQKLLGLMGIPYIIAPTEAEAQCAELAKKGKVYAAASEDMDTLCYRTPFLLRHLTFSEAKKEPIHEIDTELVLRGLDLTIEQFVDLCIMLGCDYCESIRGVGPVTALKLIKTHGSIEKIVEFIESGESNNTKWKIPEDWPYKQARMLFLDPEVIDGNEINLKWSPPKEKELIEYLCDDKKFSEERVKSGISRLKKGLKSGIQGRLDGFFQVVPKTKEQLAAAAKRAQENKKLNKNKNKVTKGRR
Kind of experiment: mass photometry.

In experiment [2] the target is T1, S.c. Rad27 (Fen1) flap endonuclease …. Kind of experiment: single-molecule colocalisation on DNA.

B1: PCNA (as used in mass photometry; tag and label not stated) (natural protein, S. cerevisiae, UniProt P15873 1-258, looked up)
chain: MLEAKFEEASLFKRIIDGFKDCVQLVNFQCKEDGIIAQAVDDSRVLLVSLEIGVEAFQEYRCDHPVTLGMDLTSLSKILRCGNNTDTLTLIADNTPDSIILLFEDTKKDRIAEYSLKLMDIDADFLKIEELQYDSTLSLPSSEFSKIVRDLSQLSDSINIMITKETIKFVADGDIGSGSVIIKPFVDMEHPETSIKLEMDQPVDLTFGAKYLLDIIKGSSLSDRVGIRLSSEAPALFQFDLKSGFLQFFLAPKFNDEE
As to B1, the binding result in experiment [1] is listed as “binds”.

B2: LD655-PCNA (S. cerevisiae 3X FLAG-S6-tagged PCNA labeled with LD655) (natural protein, UniProt P15873 1-258, looked up)
chain: B1 chain
modifications: LD655 (from LD655-CoA, by SFP synthase) on the single serine residue of the S6 tag
Turning to B2, the binding result in experiment [2] was “binds”.
